In patent publication US20030068675, “Position dependent recognition of GNN nucleotide triplets by zinc fingers” (published 2003):

Assays:
Assay in all cases: EMSA
Conditions in all cases: tags: MBP fusion
ZFP SBS#1422 = molecular target: T1, ZFP SBS#1422 (synthetic)
T1 chain: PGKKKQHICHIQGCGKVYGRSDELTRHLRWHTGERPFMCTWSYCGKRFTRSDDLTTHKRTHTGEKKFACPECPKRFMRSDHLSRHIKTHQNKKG
Procedure, shortened: (§1)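 Purified ZFP was titrated against labeled double-stranded target (1 nM or lower, at least 10-fold below expected Kd) carrying the natural binding site with flanks. Binding buffer was 10 mM Tris pH 7.5, 100 mM KCl, 1 mM MgCl2, 0.1 mM ZnCl2, 5 mM DTT, 10% glycerol, 0.02% BSA, with equilibration for at least 45 min. Bound and free target were separated on a 10% polyacrylamide gel.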

ZFP SBS#1423 = molecular target: T2, ZFP SBS#1423 (synthetic)
T2 chain: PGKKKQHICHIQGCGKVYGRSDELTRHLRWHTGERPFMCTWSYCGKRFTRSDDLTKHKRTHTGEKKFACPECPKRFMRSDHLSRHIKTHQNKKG
Procedure, shortened: as §1

ZFP SBS#1406 = ZFP SBS#1406 (synthetic)
ZFP SBS#1406 (synthetic), sequence (chain, as listed by the source): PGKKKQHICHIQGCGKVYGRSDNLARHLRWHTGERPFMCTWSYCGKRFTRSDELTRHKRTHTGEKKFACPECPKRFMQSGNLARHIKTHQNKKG
Procedure, shortened: as §1

ZFP SBS#1405 = molecular target: T3, ZFP SBS#1405 (synthetic)
T3 chain: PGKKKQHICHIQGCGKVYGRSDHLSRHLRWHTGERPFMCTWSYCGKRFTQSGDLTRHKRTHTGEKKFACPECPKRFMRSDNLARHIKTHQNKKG
Procedure, shortened: as §1

ZFP SBS#1404 = molecular target: T4, ZFP SBS#1404 (synthetic)
T4 chain: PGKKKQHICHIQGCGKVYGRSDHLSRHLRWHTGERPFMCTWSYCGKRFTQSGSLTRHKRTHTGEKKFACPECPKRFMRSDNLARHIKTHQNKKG
Procedure, shortened: as §1

ZFP SBS#1441 = ZFP SBS#1441 (synthetic)
ZFP SBS#1441 (synthetic), sequence (chain, as listed by the source): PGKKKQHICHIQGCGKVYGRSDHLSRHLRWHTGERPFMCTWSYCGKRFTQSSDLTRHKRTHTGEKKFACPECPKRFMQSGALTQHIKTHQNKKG
Procedure, shortened: as §1

ZFP SBS#1436 = molecular target: T5, ZFP SBS#1436 (synthetic, UniProt P08047)
T5 chain: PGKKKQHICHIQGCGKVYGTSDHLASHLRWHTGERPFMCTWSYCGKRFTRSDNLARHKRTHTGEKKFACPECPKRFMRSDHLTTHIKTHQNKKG
Procedure, shortened: as §1

ZFP SBS#1399 = molecular target: T6, ZFP SBS#1399 (synthetic, UniProt P08047)
T6 chain: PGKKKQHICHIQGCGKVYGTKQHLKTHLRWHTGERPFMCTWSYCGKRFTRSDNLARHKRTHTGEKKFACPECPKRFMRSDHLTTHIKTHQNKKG
Procedure, shortened: as §1

ZFP SBS#1407 = ZFP SBS#1407 (synthetic)
ZFP SBS#1407 (synthetic), sequence (chain, as listed by the source): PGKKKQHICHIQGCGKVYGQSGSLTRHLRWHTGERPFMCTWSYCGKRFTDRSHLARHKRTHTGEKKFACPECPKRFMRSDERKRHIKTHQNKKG
Procedure, shortened: as §1

ZFP SBS#1412 = molecular target: T7, ZFP SBS#1412 (synthetic)
T7 chain: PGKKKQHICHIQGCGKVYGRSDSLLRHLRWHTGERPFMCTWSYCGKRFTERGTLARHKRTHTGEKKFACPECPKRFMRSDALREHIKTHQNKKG
Procedure, shortened: as §1

ZFP SBS#1434 = molecular target: T8, ZFP SBS#1434 (synthetic)
T8 chain: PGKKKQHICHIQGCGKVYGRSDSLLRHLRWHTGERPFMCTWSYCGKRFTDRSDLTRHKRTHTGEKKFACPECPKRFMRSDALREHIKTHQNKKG
Procedure, shortened: as §1

ZFP SBS#1432 = molecular target: T9, ZFP SBS#1432 (synthetic)
T9 chain: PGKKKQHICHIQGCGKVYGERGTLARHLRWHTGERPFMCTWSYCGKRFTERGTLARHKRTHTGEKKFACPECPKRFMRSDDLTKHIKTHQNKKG
Procedure, shortened: as §1

ZFP SBS#1430 = molecular target: T10, ZFP SBS#1430 (synthetic)
T10 chain: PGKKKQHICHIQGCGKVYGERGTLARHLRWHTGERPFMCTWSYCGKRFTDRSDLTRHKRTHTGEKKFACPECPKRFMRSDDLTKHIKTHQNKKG
Procedure, shortened: as §1

ZFP SBS#1431 = molecular target: T11, ZFP SBS#1431 (synthetic)
T11 chain: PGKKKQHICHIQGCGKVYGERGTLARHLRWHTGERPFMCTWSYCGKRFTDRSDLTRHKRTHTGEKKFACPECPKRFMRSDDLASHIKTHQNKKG
Procedure, shortened: as §1

ZFP SBS#1401 = molecular target: T12, ZFP SBS#1401 (synthetic)
T12 chain: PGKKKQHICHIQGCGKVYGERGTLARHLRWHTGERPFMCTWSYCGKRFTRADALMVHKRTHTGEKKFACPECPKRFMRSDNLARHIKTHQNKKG
Procedure, shortened: as §1

ZFP SBS#1417 = molecular target: T13, ZFP SBS#1417 (synthetic)
T13 chain: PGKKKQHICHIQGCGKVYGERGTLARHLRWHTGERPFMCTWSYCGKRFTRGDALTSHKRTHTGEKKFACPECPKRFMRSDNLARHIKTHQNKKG
Procedure, shortened: as §1

ZFP SBS#1408 = molecular target: T14, ZFP SBS#1408 (synthetic)
T14 chain: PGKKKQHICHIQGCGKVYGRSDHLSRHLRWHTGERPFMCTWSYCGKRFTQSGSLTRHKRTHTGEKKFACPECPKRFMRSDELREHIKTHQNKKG
Procedure, shortened: as §1

ZFP SBS#1409 = molecular target: T15, ZFP SBS#1409 (synthetic)
T15 chain: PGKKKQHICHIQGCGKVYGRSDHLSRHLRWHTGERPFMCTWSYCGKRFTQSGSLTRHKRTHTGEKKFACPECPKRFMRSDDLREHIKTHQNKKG
Procedure, shortened: as §1

ZFP SBS#1410 = molecular target: T16, ZFP SBS#1410 (synthetic, UniProt P08047)
T16 chain: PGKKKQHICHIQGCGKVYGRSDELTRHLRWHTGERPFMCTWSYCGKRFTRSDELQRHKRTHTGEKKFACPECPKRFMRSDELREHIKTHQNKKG
Procedure, shortened: as §1

ZFP SBS#1415 = molecular target: T17, ZFP SBS#1415 (synthetic)
T17 chain: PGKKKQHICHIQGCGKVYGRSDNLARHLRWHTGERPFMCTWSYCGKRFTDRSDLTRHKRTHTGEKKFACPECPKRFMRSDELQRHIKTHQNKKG
Procedure, shortened: as §1

ZFP SBS#1416 = molecular target: T18, ZFP SBS#1416 (synthetic)
T18 chain: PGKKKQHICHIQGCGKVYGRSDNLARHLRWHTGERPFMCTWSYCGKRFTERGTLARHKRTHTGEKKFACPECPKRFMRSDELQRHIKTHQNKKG
Procedure, shortened: as §1

ZFP SBS#1439 = ZFP SBS#1439 (synthetic)
ZFP SBS#1439 (synthetic), sequence (chain, as listed by the source): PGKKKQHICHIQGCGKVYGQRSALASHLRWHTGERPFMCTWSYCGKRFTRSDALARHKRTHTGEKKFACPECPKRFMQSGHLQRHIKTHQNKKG
Procedure, shortened: as §1

ZFP SBS#1440 = ZFP SBS#1440 (synthetic)
ZFP SBS#1440 (synthetic), sequence (chain, as listed by the source): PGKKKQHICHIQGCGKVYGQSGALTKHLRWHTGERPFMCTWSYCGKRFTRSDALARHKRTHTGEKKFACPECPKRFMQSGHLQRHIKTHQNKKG
Procedure, shortened: as §1

ZFP SBS#1418 = molecular target: T19, ZFP SBS#1418 (synthetic)
T19 chain: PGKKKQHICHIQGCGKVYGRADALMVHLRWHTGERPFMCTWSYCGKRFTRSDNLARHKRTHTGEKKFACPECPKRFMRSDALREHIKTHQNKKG
Procedure, shortened: as §1

ZFP SBS#1402 = molecular target: T20, ZFP SBS#1402 (synthetic)
T20 chain: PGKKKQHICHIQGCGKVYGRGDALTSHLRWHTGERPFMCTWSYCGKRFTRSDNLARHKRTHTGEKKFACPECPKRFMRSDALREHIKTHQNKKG
Procedure, shortened: as §1

ZFP SBS#1398 = molecular target: T21, ZFP SBS#1398 (synthetic)
T21 chain: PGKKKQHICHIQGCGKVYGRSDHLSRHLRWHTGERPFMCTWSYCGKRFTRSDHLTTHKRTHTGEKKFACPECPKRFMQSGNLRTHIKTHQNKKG
Procedure, shortened: as §1

ZFP SBS#1435 = molecular target: T22, ZFP SBS#1435 (synthetic)
T22 chain: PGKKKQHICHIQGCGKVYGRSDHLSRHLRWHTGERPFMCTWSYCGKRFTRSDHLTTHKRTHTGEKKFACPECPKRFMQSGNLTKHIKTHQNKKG
Procedure, shortened: as §1

ZFP SBS#1428 = ZFP SBS#1428 (synthetic)
Procedure, shortened: as §1

ZFP SBS#1429 = ZFP SBS#1429 (synthetic)
Procedure, shortened: as §1

ZFP SBS#1411 = ZFP SBS#1411 (synthetic)
Procedure, shortened: as §1

ZFP SBS#1414 = molecular target: T23, ZFP SBS#1414 (synthetic)
T23 chain: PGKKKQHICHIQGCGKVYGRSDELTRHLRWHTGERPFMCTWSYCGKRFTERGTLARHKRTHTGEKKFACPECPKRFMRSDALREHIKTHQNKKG
Procedure, shortened: as §1

ZFP SBS#1413 = molecular target: T24, ZFP SBS#1413 (synthetic)
T24 chain: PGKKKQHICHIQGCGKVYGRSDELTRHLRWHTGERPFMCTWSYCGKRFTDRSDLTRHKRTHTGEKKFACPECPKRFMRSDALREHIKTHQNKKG
Procedure, shortened: as §1

ZFP SBS#1424 = molecular target: T25, ZFP SBS#1424 (synthetic)
T25 chain: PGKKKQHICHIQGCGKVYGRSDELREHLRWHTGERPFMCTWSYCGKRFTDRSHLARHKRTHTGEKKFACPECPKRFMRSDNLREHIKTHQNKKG
Procedure, shortened: as §1

ZFP SBS#1427 = molecular target: T26, ZFP SBS#1427 (synthetic)
T26 chain: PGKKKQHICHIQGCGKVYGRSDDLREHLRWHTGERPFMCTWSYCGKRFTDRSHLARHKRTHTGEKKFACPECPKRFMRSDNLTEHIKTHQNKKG
Procedure, shortened: as §1

B1: GGGTCGGCG (dsDNA)
DNA 1: GGGTCGGCG
DNA 2: CGCCGACCC
In the case of B1, the Kd (ZFP SBS#1422) is reported as 64 pM and the Kd (ZFP SBS#1423) is reported as 34 pM.

B2: GAAGCGGAG (dsDNA)
DNA 1: GAAGCGGAG
DNA 2: CTCCGCTTC
B2 was tested, and the Kd (ZFP SBS#1406) was 25 pM.

B3: GAGGCAGGG (dsDNA)
DNA 1: GAGGCAGGG
DNA 2: CCCTGCCTC
For B3, the Kd (ZFP SBS#1405) was 45 pM and the Kd (ZFP SBS#1404) was 22 pM.

B4: ATAGCTGGG (dsDNA)
DNA 1: ATAGCTGGG
DNA 2: CCCAGCTAT
For B4, the Kd (ZFP SBS#1441) was 262 pM.

B5: TGGGAGTGT (dsDNA)
DNA 1: TGGGAGTGT
DNA 2: ACACTCCCA
B5 gave a Kd (ZFP SBS#1436) of 26 pM and a Kd (ZFP SBS#1399) of 100 pM.

B6: GCGGGCGCA (dsDNA)
DNA 1: GCGGGCGCA
DNA 2: TGCGCCCGC
B6 gave a Kd (ZFP SBS#1407) of 585 pM.

B7: CTGGCCGTG (dsDNA)
DNA 1: CTGGCCGTG
DNA 2: CACGGCCAG
With B7 the Kd (ZFP SBS#1412) was 172 pM and the Kd (ZFP SBS#1434) was 51 pM.

B8: TCGGCCGCC (dsDNA)
DNA 1: TCGGCCGCC
DNA 2: GGCGGCCGA
B8 was tested, and the Kd (ZFP SBS#1432) was 1780 pM, the Kd (ZFP SBS#1430) was 352 pM and the Kd (ZFP SBS#1431) was 6170 pM.

B9: GAGTTGGCC (dsDNA)
DNA 1: GAGTTGGCC
DNA 2: GGCCAACTC
For B9, the Kd (ZFP SBS#1401) was 167 pM and the Kd (ZFP SBS#1417) was 1400 pM.

B10: CCGGCAGGG (dsDNA)
DNA 1: CCGGCAGGG
DNA 2: CCCTGCCGG
Work on B10 yielded a Kd (ZFP SBS#1408) of 305 pM and a Kd (ZFP SBS#1409) of 153 pM.

B11: CCGGCGGCG (dsDNA)
DNA 1: CCGGCGGCG
DNA 2: CGCCGCCGG
Work on B11 yielded a Kd (ZFP SBS#1410) of 814 pM.

B12: GCGGCCGAG (dsDNA)
DNA 1: GCGGCCGAG
DNA 2: CTCGGCCGC
With B12 the Kd (ZFP SBS#1415) was 102 pM and the Kd (ZFP SBS#1416) was 153 pM.

B13: GGAGTGTTA (dsDNA)
DNA 1: GGAGTGTTA
DNA 2: TAACACTCC
In the case of B13, the Kd (ZFP SBS#1439) is reported as 75 pM and the Kd (ZFP SBS#1440) is reported as 35 pM.

B14: CTGGAGTTG (dsDNA)
DNA 1: CTGGAGTTG
DNA 2: CAACTCCAG
B14 was tested, and the Kd (ZFP SBS#1418) was 241 pM and the Kd (ZFP SBS#1402) was 150 pM.

B15: TAATGGGGG (dsDNA)
DNA 1: TAATGGGGG
DNA 2: CCCCCATTA
In the case of B15, the Kd (ZFP SBS#1398) is reported as 65 pM and the Kd (ZFP SBS#1435) is reported as 57 pM.

B16: TGAGGCGAG (dsDNA)
DNA 1: TGAGGCGAG
DNA 2: CTCGCCTCA
Work on B16 yielded a Kd (ZFP SBS#1428) of 102 pM, a Kd (ZFP SBS#1429) of 74 pM and a Kd (ZFP SBS#1411) of 282 pM.

B17: CTGGCCGCG (dsDNA)
DNA 1: CTGGCCGCG
DNA 2: CGCGGCCAG
In the case of B17, the Kd (ZFP SBS#1414) is reported as 914 pM and the Kd (ZFP SBS#1413) is reported as 152 pM.

B18: CAGGGCCCG (dsDNA)
DNA 1: CAGGGCCCG
DNA 2: CGGGCCCTG
Binder B18 has a Kd (ZFP SBS#1424) of 1370 pM and a Kd (ZFP SBS#1427) of 271 pM.
